Where two headings read alike, the source gives them in different places.
Experiments:
[1] = system: T1, Cas12i1 (IVTT-expressed) (uncultured freshwater metagenome); conditions: IVTT gene silencing
T1 sequence: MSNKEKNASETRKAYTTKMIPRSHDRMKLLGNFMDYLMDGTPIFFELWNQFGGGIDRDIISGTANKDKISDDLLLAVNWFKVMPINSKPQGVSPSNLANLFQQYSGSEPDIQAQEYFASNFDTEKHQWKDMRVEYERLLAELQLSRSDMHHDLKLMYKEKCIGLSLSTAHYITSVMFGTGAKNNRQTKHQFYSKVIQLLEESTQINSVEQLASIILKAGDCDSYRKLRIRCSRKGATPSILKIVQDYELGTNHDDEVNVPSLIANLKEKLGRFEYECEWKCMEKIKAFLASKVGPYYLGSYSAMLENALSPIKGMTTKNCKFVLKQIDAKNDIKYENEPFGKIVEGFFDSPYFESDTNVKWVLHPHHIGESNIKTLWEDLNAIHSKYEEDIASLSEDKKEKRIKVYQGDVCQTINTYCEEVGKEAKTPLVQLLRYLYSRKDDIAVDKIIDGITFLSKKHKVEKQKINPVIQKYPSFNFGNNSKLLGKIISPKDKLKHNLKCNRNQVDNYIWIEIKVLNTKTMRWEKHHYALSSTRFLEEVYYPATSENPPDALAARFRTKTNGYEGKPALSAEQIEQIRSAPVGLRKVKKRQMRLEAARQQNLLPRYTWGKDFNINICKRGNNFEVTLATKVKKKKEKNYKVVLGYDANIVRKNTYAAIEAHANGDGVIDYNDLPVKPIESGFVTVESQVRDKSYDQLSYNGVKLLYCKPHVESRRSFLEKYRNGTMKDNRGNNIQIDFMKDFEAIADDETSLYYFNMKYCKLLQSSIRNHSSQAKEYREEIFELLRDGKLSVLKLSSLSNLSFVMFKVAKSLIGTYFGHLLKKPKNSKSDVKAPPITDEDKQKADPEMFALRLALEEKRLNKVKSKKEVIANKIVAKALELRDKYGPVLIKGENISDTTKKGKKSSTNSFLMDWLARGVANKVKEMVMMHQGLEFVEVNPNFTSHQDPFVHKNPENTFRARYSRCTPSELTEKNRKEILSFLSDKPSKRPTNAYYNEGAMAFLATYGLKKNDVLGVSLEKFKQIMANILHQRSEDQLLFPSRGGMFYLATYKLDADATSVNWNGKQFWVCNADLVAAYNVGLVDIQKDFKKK

[2] = system: T1, Cas12i1 (IVTT-expressed) (uncultured freshwater metagenome); conditions: IVTT gene silencing, after 400 min
[3] = system: T2, Cas12i2 mammalian construct (uncultured freshwater lake metagenome); experiment: cell_activity; conditions: PAM TTC; 293T cells, 72 h; indels centred around +20 from PAM
T2 sequence: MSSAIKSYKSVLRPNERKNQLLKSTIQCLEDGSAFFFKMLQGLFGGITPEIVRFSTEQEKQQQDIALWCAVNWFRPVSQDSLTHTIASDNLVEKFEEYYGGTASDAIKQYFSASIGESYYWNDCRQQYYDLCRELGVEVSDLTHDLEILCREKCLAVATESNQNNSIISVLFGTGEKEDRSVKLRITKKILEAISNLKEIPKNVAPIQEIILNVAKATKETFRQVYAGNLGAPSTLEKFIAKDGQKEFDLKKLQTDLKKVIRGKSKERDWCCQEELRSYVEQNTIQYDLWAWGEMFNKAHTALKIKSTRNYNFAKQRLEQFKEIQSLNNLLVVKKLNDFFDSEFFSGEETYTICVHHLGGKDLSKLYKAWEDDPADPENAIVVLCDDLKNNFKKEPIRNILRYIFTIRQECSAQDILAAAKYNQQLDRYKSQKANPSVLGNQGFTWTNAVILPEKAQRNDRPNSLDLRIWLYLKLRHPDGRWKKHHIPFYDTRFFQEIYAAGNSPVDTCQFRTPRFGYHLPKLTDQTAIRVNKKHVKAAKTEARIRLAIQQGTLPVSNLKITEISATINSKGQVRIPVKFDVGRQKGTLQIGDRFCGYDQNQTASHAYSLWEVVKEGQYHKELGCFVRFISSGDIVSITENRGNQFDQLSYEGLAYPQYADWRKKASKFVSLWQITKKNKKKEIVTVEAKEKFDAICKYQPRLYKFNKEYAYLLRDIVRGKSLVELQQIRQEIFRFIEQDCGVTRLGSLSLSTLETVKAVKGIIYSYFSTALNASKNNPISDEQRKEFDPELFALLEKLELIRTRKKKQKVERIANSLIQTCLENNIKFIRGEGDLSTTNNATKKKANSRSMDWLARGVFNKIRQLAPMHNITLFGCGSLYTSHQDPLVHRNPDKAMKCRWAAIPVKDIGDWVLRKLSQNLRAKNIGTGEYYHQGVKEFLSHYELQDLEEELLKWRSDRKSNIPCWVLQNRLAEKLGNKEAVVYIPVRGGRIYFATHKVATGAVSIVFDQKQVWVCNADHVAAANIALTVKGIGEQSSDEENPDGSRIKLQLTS

“GFP guide complementary to coding strand ; GFP plasmid (sigma 28 promoter)” was tested, and the activity (fold GFP depletion) [1] was greater than 4.

“GFP guide complementary to template strand ; GFP plasmid (sigma 28 promoter)” was tested, and the activity (fold GFP depletion) [2] was 2.

Work on “VEGFA guide for Cas12i2 (pre-crRNA) ; VEGFA locus target, TTC PAM” yielded an activity [3] of 13 % indel.

Source: patent US20200407715
